Test results reported in patent US20240383990A1.

B1: BMP9 (ligand, UniProt Q9UK05 320-429, looked up)
chain: SAGAGSHCQKTSLRVNFEDIGWDSWIIAPKEYEAYECKGGCFFPLADDVTPTKHAIVQTLVHLKFPTKVGKACCVPTKLSPISVLYKDDMGVPTLKYHYEGMSVAECGCR
B2: BMP10 (ligand, UniProt O95393 317-424, looked up)
chain: NAKGNYCKRTPLYIDFKEIGWDSWIIAPPGYEAYECRGVCNYPLAEHLTPTKHAIIQALVHLKNSQKASKACCVPTKLEPISILYLDKGVVTYKFKYEGMAVSECGCR

Target: ALK1 / BMPRII receptor pair (BMPR Type I receptor ALK1 and BMPR Type II receptor BMPRII) on cells (UniProt P37023)
Experiment: cell-based or functional assay

Sequence of ALK1 / BMPRII receptor pair (BMPR Type I receptor ALK1 and BMPR Type II receptor BMPRII) on cells (P37023 22-503 limits assumed, chain 1 of 2): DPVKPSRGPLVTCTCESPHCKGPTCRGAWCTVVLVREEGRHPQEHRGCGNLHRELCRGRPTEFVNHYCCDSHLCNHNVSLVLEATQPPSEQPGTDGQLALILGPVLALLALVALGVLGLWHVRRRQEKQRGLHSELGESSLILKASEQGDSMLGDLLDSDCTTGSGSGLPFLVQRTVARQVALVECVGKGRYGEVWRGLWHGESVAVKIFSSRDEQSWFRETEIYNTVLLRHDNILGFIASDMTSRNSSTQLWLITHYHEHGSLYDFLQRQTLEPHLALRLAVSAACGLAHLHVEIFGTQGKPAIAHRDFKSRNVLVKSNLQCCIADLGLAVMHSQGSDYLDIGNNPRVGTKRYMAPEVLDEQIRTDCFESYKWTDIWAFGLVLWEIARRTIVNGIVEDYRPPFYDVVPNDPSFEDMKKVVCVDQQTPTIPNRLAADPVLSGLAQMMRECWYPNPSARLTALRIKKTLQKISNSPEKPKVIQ
Sequence of ALK1 / BMPRII receptor pair (BMPR Type I receptor ALK1 and BMPR Type II receptor BMPRII) on cells (Q13873 27-1038 limits assumed, chain 2 of 2, further chain): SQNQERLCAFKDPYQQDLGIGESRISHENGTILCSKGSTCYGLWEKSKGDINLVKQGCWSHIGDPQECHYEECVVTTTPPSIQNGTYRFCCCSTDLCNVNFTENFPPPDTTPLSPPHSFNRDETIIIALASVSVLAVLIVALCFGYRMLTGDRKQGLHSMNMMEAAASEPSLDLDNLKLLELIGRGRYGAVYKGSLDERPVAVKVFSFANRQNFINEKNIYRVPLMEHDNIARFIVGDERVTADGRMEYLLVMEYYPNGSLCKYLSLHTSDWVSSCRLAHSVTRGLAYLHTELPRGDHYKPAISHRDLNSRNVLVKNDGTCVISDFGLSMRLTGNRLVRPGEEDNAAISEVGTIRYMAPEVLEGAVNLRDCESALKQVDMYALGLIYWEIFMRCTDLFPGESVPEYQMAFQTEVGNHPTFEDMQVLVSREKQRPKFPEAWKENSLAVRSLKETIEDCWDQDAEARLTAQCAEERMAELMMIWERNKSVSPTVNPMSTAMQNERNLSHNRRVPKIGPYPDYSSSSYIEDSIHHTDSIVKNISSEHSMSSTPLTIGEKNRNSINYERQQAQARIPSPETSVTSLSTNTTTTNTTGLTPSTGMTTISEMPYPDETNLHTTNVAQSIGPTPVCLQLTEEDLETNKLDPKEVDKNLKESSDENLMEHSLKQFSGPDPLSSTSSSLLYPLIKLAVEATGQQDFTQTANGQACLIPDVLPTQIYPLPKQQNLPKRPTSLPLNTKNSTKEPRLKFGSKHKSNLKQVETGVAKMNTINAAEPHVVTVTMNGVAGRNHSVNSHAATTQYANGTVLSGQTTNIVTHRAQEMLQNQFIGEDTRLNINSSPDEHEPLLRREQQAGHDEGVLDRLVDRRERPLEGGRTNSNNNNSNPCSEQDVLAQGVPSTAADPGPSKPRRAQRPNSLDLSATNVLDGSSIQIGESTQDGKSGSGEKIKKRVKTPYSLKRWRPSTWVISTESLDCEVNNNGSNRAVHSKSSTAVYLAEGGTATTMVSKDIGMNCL

Binder	Agonist activity, % Emax BMP9 [% Emax BMP9]	Agonist activity, EC50 [nM]	Agonist activity, EMAX (RLU)	pSMAD1 ELISA in HUVEC, RLU 15 minutes, at 0 nM (baseline) [RLU]	pSMAD1 ELISA in HUVEC, RLU 15 minutes, at 0.04 nM [RLU]	pSMAD1 ELISA in HUVEC, RLU 15 minutes, at 0.2 nM [RLU]	pSMAD1 ELISA in HUVEC, RLU 15 minutes, at 1 nM [RLU]	pSMAD1 ELISA in HUVEC, RLU 60 minutes, at 0 nM (baseline) [RLU]	pSMAD1 ELISA in HUVEC, RLU 60 minutes, at 0.04 nM [RLU]	pSMAD1 ELISA in HUVEC, RLU 60 minutes, at 0.2 nM [RLU]	pSMAD1 ELISA in HUVEC, RLU 60 minutes, at 1 nM [RLU]
B1	100	0.02	2.64e+06	4.9	101	102	106	6.1	81.8	83.2	81.8
B2	97	0.1	2.57e+06								
